The source of these data is publication PMC12091997.

Test [1] deals with His6-tagged human GBP1 C589S (CaaX box mutant) (human) (UniProt P32455). Kind of test: SEC; Superdex 200 10/300 GL on AKTA FPLC; 100 ug protein; 20 mM Tris (7.5), 140 mM NaCl, 2 mM MgCl2 with 200 uM GDP-AlF4- (transition state analogue); monomer to dimer.
Test [2] deals with tag-free recombinant human GBP1, farnesylated (human) (UniProt P32455). Kind of test: cryo-EM structure; cryo-electron tomography (300 kV) with sub-tomogram averaging of tag-free GBP1 coat assembled on Stm ΔwaaG::pBAD-ftsZ OMVs/minicells in the presence of GTP; 12,858 particles; dimer mask and monomer mask.

The term stoichiometry N denotes the number of molecules, sites or subunits per partner or assembly. As to “His6-tagged human GBP1 C589S (CaaX box mutant) (from UniProt P32455 1-592) (natural protein)”, in test [1], the stoichiometry N turned out to be 2.

Regarding “tag-free recombinant human GBP1, farnesylated (from UniProt P32455 1-592) (natural protein)”, the stoichiometry N in test [2] stood at 2.
